Measured values published in doi:10.1101/2021.06.16.448340 (bioRxiv, 2021).

B2: QcrB, cytochrome b subunit of complex III (natural protein, Corynebacterium glutamicum, UniProt Q79VE9 1-539, looked up)
chain: MSLATVGNNLDSRYTMASGIRRQINKVFPTHWSFMLGEIALYSFIVLLLTGVYLTLFFDPSITKVIYDGGYLPLNGVEMSRAYATALDISFEVRGGLFIRQMHHWAALLFVVSMLVHMLRIFFTGAFRRPREANWIIGVVLIILGMAEGFMGYSLPDDLLSGVGLRIMSAIIVGLPIIGTWMHWLIFGGDFPSDLMLDRFYIAHVLIIPAILLGLIAAHLALVWYQKHTQFPGAGRTENNVIGIRIMPLFAVKAVAFGLIVFGFLALLAGVTTINAIWNLGPYNPSQVSAGSQPDVYMLWTDGAARVMPAWELYLGNYTIPAVFWVAVMLGILVVLLVTYPFIERKFTGDDAHHNLLQRPRDVPVRTSLGVMALVFYILLTVSGGNDVYAMQFHVSLNAMTWIGRIGLIVGPAIAYFITYRLCIGLQRSDREVLEHGIETGIIKQMPNGAFIEVHQPLGPVDDHGHPIPLPYAGAAVPKQMNQLGYAEVETRGGFFGPDPEDIRAKAKEIEHANHIEEANTLRALNEANIERDKNEGKN

Legend:
[1] = target: B2; test: cryo-EM structure
[2] = target: T1, CtaD with Strep-tag, subunit I homologue of complex IV (Corynebacterium glutamicum, UniProt Q79VD7 1-584); test: cryo-EM structure
T1 sequence (looked up): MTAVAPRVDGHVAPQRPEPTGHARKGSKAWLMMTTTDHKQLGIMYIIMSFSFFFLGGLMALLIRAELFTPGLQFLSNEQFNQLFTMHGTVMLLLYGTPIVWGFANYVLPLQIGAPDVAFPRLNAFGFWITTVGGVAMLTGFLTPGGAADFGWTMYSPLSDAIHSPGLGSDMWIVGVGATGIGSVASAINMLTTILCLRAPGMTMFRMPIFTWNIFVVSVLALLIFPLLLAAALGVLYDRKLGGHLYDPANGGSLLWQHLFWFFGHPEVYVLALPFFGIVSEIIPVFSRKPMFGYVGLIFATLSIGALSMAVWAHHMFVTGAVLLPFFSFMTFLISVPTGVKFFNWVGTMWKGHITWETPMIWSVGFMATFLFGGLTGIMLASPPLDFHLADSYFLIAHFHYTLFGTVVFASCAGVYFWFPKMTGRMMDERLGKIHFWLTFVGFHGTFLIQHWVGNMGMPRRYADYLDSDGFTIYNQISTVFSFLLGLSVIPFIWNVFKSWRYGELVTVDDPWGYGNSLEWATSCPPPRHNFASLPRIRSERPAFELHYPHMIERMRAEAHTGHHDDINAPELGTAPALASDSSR

[3] = target: T1, CtaD with Strep-tag, subunit I …; test: affinity purification with mass spectrometry
cryo-EM structure = target: the molecule itself; test: cryo-EM structure

B1: AscA (P20, PRSAF1) (natural protein, Corynebacterium glutamicum, UniProt Q8NP09 1-147, looked up)
chain: MAGSSHTIEPEIYRGVSTLDEPSAAWGWHGLKRNTIQLAGWISVLFMLGYNFGNHKGHVETIWLLVITALLVIGLLIHLFEPKLSQVRTITSRNKPVGHVEPDWTYDQATLTGTWGNLTDSQLRSVNIEPSRVAHLRAADSAKELDN
B1: binds [1]; binds [2].

B2: binds [3].

B3: Complex III (cyt. bc1 complex) protomer, QcrA-QcrB-QcrC (complex, Corynebacterium glutamicum)
chain 1: MSNNNDKQYTTQELNAMSNEDLARLGTELDDVTIAYRKERFPIANDPAEKRAARAVTFWLVLGIIGGLGFLATYIFWPWEYKAHGDEGLLAYTLYTPMLGITSGLCILSLGFAVVLYVKKFIPEEIAVQRRHDGPSEEVDRRTIVALLNDSWQTSTLGRRKLIMGLAGGGAVLAGLTIIAPMGGMIKNPWNPKEGPMDVQGDGTLWTSGWTLVENDVKVYLGRDTAAIAESHTDATGEHWSTTGVSRLVRMRPEDLAAASMETVFPLPAEMVNDGAEYDPAKDVYEHQMHSVHGPRNAVMLIRLRTADAEKVIEREGQESFHYGDYYAYSKICTHIGCPTSLYEAQTNRILCPCHQSQFDALHYGKPVFGPAARALPQLPITVDEEGYLIAAGNFIEPLGPAFWERKS
chain 2: MSLATVGNNLDSRYTMASGIRRQINKVFPTHWSFMLGEIALYSFIVLLLTGVYLTLFFDPSITKVIYDGGYLPLNGVEMSRAYATALDISFEVRGGLFIRQMHHWAALLFVVSMLVHMLRIFFTGAFRRPREANWIIGVVLIILGMAEGFMGYSLPDDLLSGVGLRIMSAIIVGLPIIGTWMHWLIFGGDFPSDLMLDRFYIAHVLIIPAILLGLIAAHLALVWYQKHTQFPGAGRTENNVIGIRIMPLFAVKAVAFGLIVFGFLALLAGVTTINAIWNLGPYNPSQVSAGSQPDVYMLWTDGAARVMPAWELYLGNYTIPAVFWVAVMLGILVVLLVTYPFIERKFTGDDAHHNLLQRPRDVPVRTSLGVMALVFYILLTVSGGNDVYAMQFHVSLNAMTWIGRIGLIVGPAIAYFITYRLCIGLQRSDREVLEHGIETGIIKQMPNGAFIEVHQPLGPVDDHGHPIPLPYAGAAVPKQMNQLGYAEVETRGGFFGPDPEDIRAKAKEIEHANHIEEANTLRALNEANIERDKNEGKN
chain 3: MAKPSAKKVKNRRKVRRTVAGALALTIGLSGAGILATAITPDAQVATAQRDDQALISEGKDLYDVACITCHGVNLQGVEDRGPSLVGVGEGAVYFQVHSGRMPILRNEAQAERKAPRYTEAQTLAIAAYVAANGGGPGLVYNEDGTLAMEELRGENYDGQITSADVARGGDLFRLNCASCHNFTGRGGALSSGKYAPNLDAANEQEIYQAMLTGPQNMPKFSDRQLSADEKKDIIAFIKSTKETPSPGGYSLGSLGPVAEGLFMWVFGILVLVAAAMWIGSRS
With B3 the “stoichiometry N” value (cryo-EM structure) was 2.
